± gives the uncertainty stated by the source.
Experiment: amyloid nucleation score (Sup35N fusion, yeast selection) (log enrichment); library NNK2; higher = more nucleation; inactive = no reads after selection
How it was run: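 Output and input plasmid inserts were sequenced by Illumina after psi-negative yeast carrying Sup35N fused to peptides of 20 random codons had been induced 24 hours with 100 μM copper sulfate and grown 7 days at 30°C on medium lacking adenine and uracil. The nucleation score is the DiMSum log enrichment of output over input reads, centred on the mode score of non-aggregating sequences. Sequences with under 100 input reads were excluded.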

Going from ESSIRHRGMERRCRLHKRH to ESYRPPVKTFGLGIRMGLFV, the amyloid nucleation score falls from 0.546 ± 0.39 to -0.975 ± 1.1.

Compared with ETGSIVVKMLPSRWGSLRLV, ETKKLYDRAARERRCCRNHY is lower in amyloid nucleation score: 3.19 ± 0.11 for the first, 0.078 ± 0.3 for the second.

Compared with EVFGGFTRRRCVVLPRHRAW, EVGKNRTSHIL is lower in amyloid nucleation score: 1.9 ± 0.27 for the first, -0.134 ± 0.55 for the second.

Compared with EVHASYVRTSWDVCTWVGHV, EVRFSILFGSVIKRTV is lower in amyloid nucleation score: 2.29 ± 0.26 for the first, 1.09 ± 0.21 for the second.

Compared with EVRWASAPRNCCR, EWSFLMNFSIMYRHFRVLAL is lower in amyloid nucleation score: 0.79 ± 0.26 for the first, -1.35 ± 0.78 for the second.

First: EWVAVGTDQR
Second: EWVNVASVYGDSKKRYGWNA
The amyloid nucleation score of the first is higher: 1.25 ± 0.29 for the first, -0.239 ± 0.61 for the second.

EYAYILELFYQCFVMPYTLV and EYHLDHDFSPMGMAPRH are within error of each other in amyloid nucleation score: 0.392 ± 0.51 for the first, 0.049 ± 0.63 for the second.

Going from EYHSSWVISAPVYLQSATAW to EYRVYYSRLRSLSTEEPMAS, the amyloid nucleation score falls from 5.23 ± 0.085 to -0.299 ± 0.79.

Going from EYSFIHLEIKNTVLKRVLTP to EYSLCRMG, the amyloid nucleation score falls from 1.66 ± 0.32 to -0.155 ± 0.28.

First: FACIPIQCIGISGRGSRDRR
Second: FAESDGRHHFFSPLVSERIE
The amyloid nucleation score of the first is higher: 8.017 ± 0.044 for the first, 3.82 ± 0.056 for the second.

Compared with FAFMITPCMLTSRMFSYGHA, FAFTPIC is lower in amyloid nucleation score: -0.18 ± 0.36 for the first, -1.59 ± 1 for the second.

Compared with FAIMHFY, FAYISRFKGG is higher in amyloid nucleation score: -0.711 ± 1.1 for the first, 4.22 ± 0.059 for the second.

FAYKNRNM and FCEWGSEYWGNMDCDACDTA are within error of each other in amyloid nucleation score: -0.307 ± 0.41 for the first, -1.09 ± 0.76 for the second.

FCIQK and FCKDLMFC are within error of each other in amyloid nucleation score: -0.114 ± 0.55 for the first, 0.378 ± 0.36 for the second.

Compared with FCLDLWCKGFLYYTQCVNGW, FCMRNGVYLEYFVGLMLFCA is lower in amyloid nucleation score: 4.08 ± 0.063 for the first, -0.566 ± 0.63 for the second.

FCNDRTTVGD and FCRNIKDYLDYCHRGVGPKK are within error of each other in amyloid nucleation score: -0.538 ± 0.39 for the first, 0.176 ± 0.76 for the second.

Going from FCSGVLQMLLISLDNLGRVS to FCSPCSFLINSY, the amyloid nucleation score rises from -0.017 ± 1 to 6.514 ± 0.048.

FCSVTMHKKMN and FCTKSTGNMCFTIMKLRG are within error of each other in amyloid nucleation score: -0.195 ± 0.38 for the first, 0.097 ± 0.79 for the second.

FDKCLDKLMDKEKHALTFPQ and FDLSREV are within error of each other in amyloid nucleation score: -0.453 ± 1.1 for the first, -0.544 ± 0.29 for the second.

Going from FDTRLSNFFPF to FDTVGYSACCCWP, the amyloid nucleation score rises from -0.636 ± 0.76 to 4.78 ± 0.11.

Going from FEEYEGLLDVSFKRPSFYCI to FEGTHCVSSIANVMCVRWCL, the amyloid nucleation score rises from 0.456 ± 0.6 to 6.43 ± 0.069.

FEGVTYSRVV and FEKISSAFFGNYGLFMNWLS are within error of each other in amyloid nucleation score: 0.001 ± 0.54 for the first, -0.441 ± 0.78 for the second.

FEMIC and FEYPLCKTFEIRKPVFRVWV are within error of each other in amyloid nucleation score: 0.783 ± 0.57 for the first, -0.089 ± 0.79 for the second.

FFAGKCGIMTSLRDLSVAFG and FFAKCELVSWDFDKSLGSSM are within error of each other in amyloid nucleation score: -0.071 ± 0.65 for the first, -0.437 ± 0.34 for the second.

Compared with FFCPRGRAFLSSRM, FFCTQRFSVCVLGVHKLESL is higher in amyloid nucleation score: -0.788 ± 0.79 for the first, 4.26 ± 0.048 for the second.

FFDGSVNQYESRYHGCD and FFIIMRYRLRDFTFVYSSPV are within error of each other in amyloid nucleation score: -0.37 ± 0.76 for the first, -0.627 ± 0.31 for the second.

First: FFMCMQVWLRVFYVRGM
Second: FFQEGYNRVPS
The amyloid nucleation score of the first is lower: -1.5 ± 0.36 for the first, -0.336 ± 0.62 for the second.

First: FFQVPSSNLVSLTDRLYSLG
Second: FFSNL
The amyloid nucleation score of the first is lower: -1.16 ± 0.5 for the first, 0.119 ± 0.57 for the second.

First: FFSTTYNHNSDFAWDQAELY
Second: FGCIFYPMYLS
The amyloid nucleation score of the first is lower: 0.016 ± 1.1 for the first, 5.32 ± 0.088 for the second.

First: FGDLGLIVRDSKSLLGSIKQ
Second: FGFKCSAVITICPGPSRLGS
The amyloid nucleation score of the first is lower: 0.053 ± 0.79 for the first, 5.12 ± 0.081 for the second.

Going from FGILGCMYVNPNMNMIYWLW to FGLGVCNWIYGCKMDAFNSG, the amyloid nucleation score rises from 1.56 ± 0.24 to 6.223 ± 0.039.

Going from FGMLFGQDKTVHRSGLDLCG to FGVITNSGCGRLFAEEKTRW, the amyloid nucleation score rises from 0.119 ± 0.5 to 1.15 ± 0.16.

FGWVVSSVSFKVMMAV and FHVEHGAWWCIGDRFVVPGF are within error of each other in amyloid nucleation score: -0.084 ± 0.44 for the first, 0.541 ± 0.2 for the second.

Compared with FHVTVRFRSYCIFDPRGCVI, FIEVTSRNT is lower in amyloid nucleation score: 1.81 ± 0.21 for the first, -0.994 ± 0.42 for the second.

Compared with FIFGCTCNILFICASSRFLQ, FIFVSNKYTNGIFAILGT is lower in amyloid nucleation score: 2.92 ± 0.11 for the first, 1.98 ± 0.13 for the second.

First: FIILYGSGMRLNFQGI
Second: FIKDKKSPSCCAN
The amyloid nucleation score of the first is higher: 0.968 ± 0.23 for the first, -0.866 ± 0.4 for the second.

First: FIKRSAGNREANYNVTKENA
Second: FILVCWISIFGLFMIPGMWD
The amyloid nucleation score of the first is higher: 0.816 ± 0.74 for the first, -1.13 ± 0.64 for the second.

First: FIMEAFFEPFNKGYRYRMMS
Second: FINGGSCYAFFCKYGYRMHR
The amyloid nucleation score of the first is higher: 0.833 ± 0.18 for the first, -0.109 ± 0.37 for the second.

In the case of ETEGKGRWKD, the amyloid nucleation score is reported as “inactive”.
For FDGTIYCPSWILWETPGVNK, the amyloid nucleation score was “inactive”.
In the case of FFFMSDLYKSLSSAYDLGSI, the amyloid nucleation score is reported as “inactive”.
With FFGGYYYKLSQKLLRIAHYH the amyloid nucleation score was “inactive”.
In the case of FFHKDPLLQNRIVLHMQVPA, the amyloid nucleation score is reported as “inactive”.
With FFTVFLQDIMVWRDQWIYPQ the amyloid nucleation score was “inactive”.
In the case of FFYEFFSHICLGQERGWPRV, the amyloid nucleation score is reported as “inactive”.
For FGGRFIQSRVSMR, the amyloid nucleation score was “inactive”.
With FGIERCRLYGNFYCVAVLGS the amyloid nucleation score was “inactive”.
With FGLDLVFISFQARKCFVVMD the amyloid nucleation score was “inactive”.
